Data from patent publication US20100056764A1.
Values joined by “and” are separate entries in the source; they are usually repeats but may differ in a detail not shown here. Equal values may be shown once. Read-outs that look alike come from different tables or passages of the source.

How the values were obtained:
[1] = target: human NKG2D (hNKG2D) on the cell surface (human) (UniProt P26718); assay: cell-based or functional assay
[2] = target: recombinant NKG2D-Fc protein (R&D Systems), immobilized on a Biacore CM5 chip (human) (UniProt P26718); assay: SPR (Biacore), NKG2D-Fc immobilized on CM5 chip, antibody in solution
recombinant NKG2D-Fc protein (R&D Systems), immobilized on a Biacore CM5 chip (human), sequence (P26718 78-216): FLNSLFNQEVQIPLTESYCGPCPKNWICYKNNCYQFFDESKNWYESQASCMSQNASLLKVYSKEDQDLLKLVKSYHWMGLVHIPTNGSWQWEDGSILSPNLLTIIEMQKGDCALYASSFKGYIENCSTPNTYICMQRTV

[3] = target: human NKG2D (hNKG2D) on the cell surface (human) (UniProt P26718); assay: flow cytometry, dose-response on NKG2D- and DAP10-expressing BaF/3 cells
[4] = target: human NKG2D (hNKG2D) on the cell surface (human) (UniProt P26718); assay: flow cytometry, NKG2D/DAP10 BaF/3 cells pre-incubated with antibody, then 1 µg hFc-MICA (competitor)
[5] = target: human NKG2D (hNKG2D) on the cell surface (human) (UniProt P26718); assay: flow cytometry, NKG2D-expressing cells pre-incubated with ON72, then recombinant 16F16 (competitor)
[6] = target: human NKG2D (hNKG2D) on the cell surface (human) (UniProt P26718); assay: flow cytometry, NKG2D/DAP10 BaF/3 cells pre-incubated with antibody, then 1 µg hFc-MICA (competitor); remark: listed apart in the source
[7] = target: human NKG2D (hNKG2D) on the cell surface (human) (UniProt P26718); assay: flow cytometry, dose-response on NKG2D- and DAP10-expressing BaF/3 cells, y axis % of max binding
[8] = target: human NKG2D (hNKG2D) on the cell surface (human) (UniProt P26718); assay: flow cytometry, NKG2D-expressing cells pre-incubated with ON72 (0.3 µg), then 16F16 IgG4 (0.3 µg, competitor); legend of FIG. 9A
[9] = target: human NKG2D (hNKG2D) on the cell surface (human) (UniProt P26718); assay: flow cytometry blocking assay on NKG2D/DAP10-expressing BaF/3 cells: pre-incubation with the antibody, then 1 µg MICA-Fc (hFc-MICA, m12, for ON72 according to paragraph 390); y axis % remaining MICA-Fc binding

human NKG2D (hNKG2D) on the cell surface (human), sequence (P26718 whole entry T72A): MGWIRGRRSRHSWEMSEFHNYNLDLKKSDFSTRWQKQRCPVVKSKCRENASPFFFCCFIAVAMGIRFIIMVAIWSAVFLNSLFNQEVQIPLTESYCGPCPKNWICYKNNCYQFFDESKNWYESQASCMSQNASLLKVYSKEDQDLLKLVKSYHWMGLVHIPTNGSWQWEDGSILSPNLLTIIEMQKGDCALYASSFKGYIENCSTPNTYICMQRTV

With “ON72, commercially available murine anti-hNKG2D monoclonal antibody (Beckman Coulter Inc.)” the % proliferation of PBMC, stimulation CD3 0.1 + CD28 + ON72 (immobilized antibodies) [1] was 22.9%, the % proliferation of PBMC, stimulation CD3 0.1 + ON72 (immobilized antibodies) [1] was 7.12% and the % proliferation of PBMC, stimulation CD3 0.3 + CD28 + ON72 (immobilized antibodies) [1] was 40.1%. It also gave a % proliferation of PBMC, stimulation CD3 0.3 + ON72 (immobilized antibodies) [1] of 28.4%, an EC50 (µg/ml), inhibition of NK cell killing of ULPB3-expressing target cells (51Cr release) [1] of 0.065 µg/mL and a down-modulation of cell-surface NKG2D, NKG2D/DAP10 BaF/3 cells, overnight incubation [1] of 55%. It also gave an internalization of NKG2D at 1 h, NKG2D+ lymphocytes in whole blood, 0.1 µg/ml [1] of 50 to 75%, an internalization of NKG2D at 24 h, NKG2D+ lymphocytes in whole blood, 0.1 µg/ml [1] of 100% and a Kd [2] of 0.17 nM. The koff [2] was 0.00011 s⁻¹, the kon [2] was 960000 M⁻¹ s⁻¹ and the EC50 [3] was 0.062 µg/mL and 0.048 nM. It also gave an IC50 [4] of 0.019 µg/mL, a full blockade of 1 µg MICA-Fc (antibody concentration) [4] of 0.54 µg/mL and a % of 16F16 binding blocked [5] of 82%. For the same substance, the IC50 [6] was 0.02 nM, the full blockade of 1 µg MICA-Fc (antibody concentration) [6] was 0.24 nM and the EC50 (read off the curve) [7] was 0.06 nM. For the same substance, the % of 16F16 binding prevented [8] was 85% and the IC50 (read off the curve) [9] was 0.02 nM.
